# T1: bacterially purified Epac1 (amino acids 149–882) (human, UniProt O95398-3 149-881)
# T1 sequence (looked up): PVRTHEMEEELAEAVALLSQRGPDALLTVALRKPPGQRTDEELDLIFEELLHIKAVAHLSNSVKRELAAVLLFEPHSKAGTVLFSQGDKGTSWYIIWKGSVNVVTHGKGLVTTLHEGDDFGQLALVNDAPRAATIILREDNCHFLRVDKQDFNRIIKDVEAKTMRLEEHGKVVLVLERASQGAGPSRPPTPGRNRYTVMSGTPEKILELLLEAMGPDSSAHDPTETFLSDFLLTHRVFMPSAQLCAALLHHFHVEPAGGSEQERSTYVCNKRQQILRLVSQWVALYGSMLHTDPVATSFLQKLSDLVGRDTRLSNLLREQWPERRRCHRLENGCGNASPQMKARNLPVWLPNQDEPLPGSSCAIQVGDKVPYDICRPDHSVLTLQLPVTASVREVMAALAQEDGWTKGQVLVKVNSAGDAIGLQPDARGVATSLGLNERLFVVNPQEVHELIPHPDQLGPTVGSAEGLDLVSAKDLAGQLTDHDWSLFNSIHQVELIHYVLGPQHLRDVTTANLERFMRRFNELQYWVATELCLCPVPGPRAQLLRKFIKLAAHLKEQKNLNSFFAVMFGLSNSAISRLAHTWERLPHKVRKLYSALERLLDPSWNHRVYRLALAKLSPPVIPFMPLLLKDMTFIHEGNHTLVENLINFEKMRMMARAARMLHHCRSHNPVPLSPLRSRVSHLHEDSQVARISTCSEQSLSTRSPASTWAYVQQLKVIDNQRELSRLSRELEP
# B1: GST-tagged bacterially purified ZNF domain of RanBP2 (domain or fragment, UniProt P49792 1341-1819, looked up)
# chain: NLNFEFQVAKKEGSWWHCNSCSLKNASTAKKCVSCQNLNPSNKELVGPPLAETVFTPKTSPENVQDRFALVTPKKEGHWDCSICLVRNEPTVSRCIACQNTKSANKSGSSFVHQASFKFGQGDLPKPINSDFRSVFSTKEGQWDCSACLVQNEGSSTKCAACQNPRKQSLPATSIPTPASFKFGTSETSKTLKSGFEDMFAKKEGQWDCSSCLVRNEANATRCVACQNPDKPSPSTSVPAPASFKFGTSETSKAPKSGFEGMFTKKEGQWDCSVCLVRNEASATKCIACQNPGKQNQTTSAVSTPASSETSKAPKSGFEGMFTKKEGQWDCSVCLVRNEASATKCIACQNPGKQNQTTSAVSTPASSETSKAPKSGFEGMFTKKEGQWDCSVCLVRNEASATKCIACQCPSKQNQTTAISTPASSEISKAPKSGFEGMFIRKGQWDCSVCCVQNESSSLKCVACDASKPTHKPIAEAPS
# Biological target: T1, bacterially purified Epac1 (amino acids …)
# Assay: pull-down
binder,measurement,value
B1,binding result,binds

# Reference: article PMC3115801 (The Journal of Cell Biology, 2011)
